Consider five sequences from the supplement of paper PMC5998384.

Data set [1] concerns HeLa Kyoto. As to the kind of experiment: solubility in G1/S (NP-40 vs SDS abundance) (log2 ratio); higher = more soluble. As to conditions: cell cycle stage: G1/S.
Data set [2] deals with HeLa Kyoto. Description: melting temperature (median over replicates), in situ; higher = more thermally stable.
The test system of data set [3] is HeLa Kyoto. As to the kind of experiment: solubility change mitosis vs G1/S (difference of NP-40 vs SDS log2 ratios) (log2 ratio difference); higher = more soluble in mitosis.
Data set [4] concerns HeLa Kyoto. Description: thermal stability score vs G1/S (z-score of summed log2 fold changes over temperatures); higher = more thermally stable than in G1/S.
[5] abbreviates: cell cycle stage: early G1 (4.5 h after nocodazole release).
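For melting temperature (median over replicates), in situ in this document: HeLa Kyoto cells synchronized by double thymidine or nocodazole block, proteins quantified by TMT10plex mass spectrometry, three independent biological replicates.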
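For solubility change mitosis vs G1/S (difference of NP-40 vs SDS log2 ratios) in this document: synchronized HeLa Kyoto cells (double thymidine block for G1/S, nocodazole release for mitosis), protein amounts in NP-40 versus SDS lysates quantified by mass spectrometry, three biological replicates.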
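For solubility in G1/S (NP-40 vs SDS abundance) in this document: HeLa Kyoto cells arrested at G1/S by double thymidine block, proteins quantified by TMT10plex mass spectrometry in mild NP-40 versus SDS extracts, three biological replicates.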
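For thermal stability score vs G1/S (z-score of summed log2 fold changes over temperatures) in this document: synchronized HeLa Kyoto cells, proteins quantified by TMT10plex mass spectrometry, three biological replicates, mitosis taken 0.5 h after nocodazole release, G1/S directly after double thymidine block.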

Consider “MPKPINVRVTTMDAELEFAIQPNTTGKQLFDQVVKTVGLREVWFFGLQYVDSKGYSTWLKLNKKVTQQDVKKENPLQFKFRAKFFPEDVSEELIQEITQRLFFLQVKEAILNDEIYCPPETAVLLASYAVQAKYGDYNKEIHKPGYLANDRLLPQRVLEQHKLTKEQWEERIQNWHEEHRGMLREDSMMEYLKIAQDLEMYGVNYFEIKNKKGTELWLGVDALGLNIYEHDDKLTPKIGFPWSEIRNISFNDKKFVIKPIDKKAPDFVFYAPRLRINKRILALCMGNHELYMRRRKPDTIEVQQMKAQAREEKHQKQLERAQLENEKKKREIAEKEKERIEREKEELMERLKQIEEQTIKAQKELEEQTRKALELDQERKRAKEEAERLEKERRAAEEAKSAIAKQAADQMKNQEQLAAELAEFTAKIALLEEAKKKKEEEATEWQHKAFAAQEDLEKTKEELKTVMSAPPPPPPPPVIPPTENEHDEHDENNAEASAELSNEGVMNHRSEEERVTETQKNERVKKQLQALSSELAQARDETKKTQNDVLHAENVKAGRDKYKTLRQIRQGNTKQRIDEFEAM [RDX]”, for which the “solubility in G1/S (log2)” value in the data set with HeLa Kyoto [1] turned out to be 0.0601. Moreover, the melting temperature in the data set with HeLa Kyoto [2] (cell cycle stage: G1/S) turned out to be 57.1 °C; with HeLa Kyoto [2] (cell cycle stage: mitosis) it was 56.4 °C. In addition, the “solubility change mitosis (log2)” value in the data set on HeLa Kyoto [3] worked out at 0.0339. Moreover, the thermal stability score is 0.702 in the data set on HeLa Kyoto [4] (setting [5]) and 0.805 in the data set with HeLa Kyoto [4] (cell cycle stage: mitosis).
Turning to “MPKRKVSSAEGAAKEEPKRRSARLSAKPPAKVEAKPKKAAAKDKSSDKKVQTKGKRGAKGKQAEVANQETKEDLPAENGETKTEESPASDEAGEKEAKSD [HMGN1]”, the “solubility in G1/S (log2)” value with HeLa Kyoto [1] stood at 0.0899. In addition, the melting temperature with HeLa Kyoto [2] (cell cycle stage: G1/S) was determined as 59 °C; with HeLa Kyoto [2] (cell cycle stage: mitosis), 56.4 °C. In the data set on HeLa Kyoto [3], the “solubility change mitosis (log2)” value was determined as 1.47. The thermal stability score with HeLa Kyoto [4] (setting [5]) is -2.25; in the data set on HeLa Kyoto [4] (cell cycle stage: mitosis) it was -4.73.
With “MPKVKRSRKAPPDGWELIEPTLDELDQKMREAETEPHEGKRKVESLWPIFRIHHQKTRYIFDLFYKRKAISRELYEYCIKEGYADKNLIAKWKKQGYENLCCLRCIQTRDTNFGTNCICRVPKSKLEVGRIIECTHCGCRGCSG [BUD31]”, the “solubility in G1/S (log2)” value in the data set on HeLa Kyoto [1] was -0.0954. Besides, the melting temperature in the data set on HeLa Kyoto [2] (cell cycle stage: G1/S) worked out at 51.1 °C; in the data set on HeLa Kyoto [2] (cell cycle stage: mitosis), 50.9 °C. The “solubility change mitosis (log2)” value with HeLa Kyoto [3] was 0.184. Moreover, the thermal stability score is 1.19 in the data set with HeLa Kyoto [4] (setting [5]) and 0.411 in the data set with HeLa Kyoto [4] (cell cycle stage: mitosis).
Turning to “MPKVKSGAIGRRRGRQEQRRELKSAGGLMFNTGIGQHILKNPLIINSIIDKAALRPTDVVLEVGPGTGNMTVKLLEKAKKVVACELDPRLVAELHKRVQGTPVASKLQVLVGDVLKTDLPFFDTCVANLPYQISSPFVFKLLLHRPFFRCAILMFQREFALRLVAKPGDKLYCRLSINTQLLARVDHLMKVGKNNFRPPPKVESSVVRIEPKNPPPPINFQEWDGLVRITFVRKNKTLSAAFKSSAVQQLLEKNYRIHCSVHNIIIPEDFSIADKIQQILTSTGFSDKRARSMDIDDFIRLLHGFNAEGIHFS [DIMT1]”, the “solubility in G1/S (log2)” value in the data set on HeLa Kyoto [1] is -0.509. The melting temperature was determined as 54.2 °C in the data set on HeLa Kyoto [2] (cell cycle stage: G1/S) and 53.2 °C in the data set with HeLa Kyoto [2] (cell cycle stage: mitosis). Besides, the “solubility change mitosis (log2)” value with HeLa Kyoto [3] amounted to 0.276. Also, the thermal stability score in the data set on HeLa Kyoto [4] (setting [5]) was 0.644; with HeLa Kyoto [4] (cell cycle stage: mitosis), 1.74.
“MPLFATNPFDQDVEKATSEMNTAEDWGLILDICDKVGQSRTGPKDCLRSIMRRVNHKDPHVAMQALTLLGACVSNCGKIFHLEVCSRDFASEVSNVLNKGHPKVCEKLKALMVEWTDEFKNDPQLSLISAMIKNLKEQGVTFPAIGSQAAEQAKASPALVAKDPGTVANKKEEEDLAKAIELSLKEQRQQSTTLSTLYPSTSSLLTNHQHEGRKVRAIYDFEAAEDNELTFKAGEIITVLDDSDPNWWKGETHQGIGLFPSNFVTADLTAEPEMIKTEKKTVQFSDDVQVETIEPEPEPAFIDEDKMDQLLQMLQSTDPSDDQPDLPELLHLEAMCHQMGPLIDEKLEDIDRKHSELSELNVKVMEALSLYTKLMNEDPMYSMYAKLQNQPYYMQSSGVSGSQVYAGPPPSGAYLVAGNAQMSHLQSYSLPPEQLSSLSQAVVPPSANPALPSQQTQAAYPNTMVSSVQGNTYPSQAPVYSPPPAATAAAATADVTLYQNAGPNMPQVPNYNLTSSTLPQPGGSQQPPQPQQPYSQKALL [STAM]”: in the data set with HeLa Kyoto [1], the “solubility in G1/S (log2)” value came out at 0.292. Moreover, the melting temperature in the data set with HeLa Kyoto [2] (cell cycle stage: G1/S) worked out at 50.3 °C; in the data set on HeLa Kyoto [2] (cell cycle stage: mitosis) it was 52 °C. Besides, the “solubility change mitosis (log2)” value with HeLa Kyoto [3] is -0.163. Moreover, the thermal stability score was found to be 0.119 in the data set with HeLa Kyoto [4] (setting [5]) and 0.654 in the data set on HeLa Kyoto [4] (cell cycle stage: mitosis).
